Assay results: US20120263652A1 (UNIVERSITY OF MARYLAND COLLEGE PARK, published 2012)

Assays:
[1] = target: human ICAM-1 (native, expressed on human cells: HUVEC, Caco-2) (human) (UniProt P05362); experiment: competition: free non-specific IgG against FITC anti-ICAM carriers on Caco-2 cells; fluorescence microscopy
[2] = target: human ICAM-1 (native, expressed on human cells: HUVEC, Caco-2) (human) (UniProt P05362); experiment: FITC IgG polystyrene carriers on fixed TNF-α-activated Caco-2 cells; fluorescence microscopy
[3] = target: mouse ICAM-1 (native, expressed on mouse endothelial cells) (mouse) (UniProt P13597); experiment: phage binding to H5V mouse endothelial cells; microscopy with fluorescent antibody to the phage capsid
[4] = target: T1, human ICAM-1 (native, expressed on human cells: HUVEC, Caco-2) (human, UniProt P05362 28-532); experiment: competition: synthetic peptide against FITC anti-ICAM polystyrene nanocarriers on human endothelial cells; fluorescence microscopy
T1 construct: whole, on cells; also called intercellular adhesion molecule 1; native human ICAM-1
T1 sequence (P05362 28-532): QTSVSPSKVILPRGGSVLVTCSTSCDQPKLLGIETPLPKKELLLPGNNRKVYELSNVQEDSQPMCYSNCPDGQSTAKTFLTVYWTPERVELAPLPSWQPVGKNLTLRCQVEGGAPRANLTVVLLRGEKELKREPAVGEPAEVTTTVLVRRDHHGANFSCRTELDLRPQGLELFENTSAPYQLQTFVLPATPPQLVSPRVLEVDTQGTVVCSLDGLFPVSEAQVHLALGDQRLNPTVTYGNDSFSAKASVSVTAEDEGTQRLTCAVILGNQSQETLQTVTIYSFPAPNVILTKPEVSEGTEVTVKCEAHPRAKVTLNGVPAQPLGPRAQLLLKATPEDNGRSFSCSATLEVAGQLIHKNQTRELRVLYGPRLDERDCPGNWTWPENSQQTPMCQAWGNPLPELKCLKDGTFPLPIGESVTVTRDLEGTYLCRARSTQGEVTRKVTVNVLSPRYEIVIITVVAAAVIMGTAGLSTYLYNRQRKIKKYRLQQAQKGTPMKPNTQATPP
Excerpt: (A) ELISA measurement of the binding of 7-mer peptide expressing phage library to immobilized recombinant ICAM-1 (consisting of the two most membrane-distal Ig domains −1 and 2- of mouse ICAM-1 fused to human Fc or hFc), versus their binding to control hFc. (B) Relative specificity and (C) relative affinity of ICAM-1-targeting peptide phages, determined by ELISA from the experiment in (A). (D) Relative binding of phages expressing 7-mer peptides to native ICAM-1 expressed on the surface of HV5 mouse endothelial cells, either control or activated with TNFalpha to mimic a disease phenotype. Binding was determined by microscopy using a fluorescently-labeled antibody to the phage capsid. The line in the graph indicates the level of binding of A1 phage to 293 cells, which are voided of ICAM-1-expression. […] (G) Binding of FITC-labeled anti-ICAM polystyrene nanocarriers to human endothelial cells was evaluated by fluorescence microscopy after incubation with cells in the absence (100% level) or presence of anti-ICAM antibody, ICAM-1-targeting synthetic peptides, or peptides with their scramble sequence (e.g., A1 sc).

[5] = target: T1, human ICAM-1 (native, expressed on …); experiment: 100 nm FITC polystyrene carriers coated with peptide on endothelial cells; fluorescence microscopy
[6] = target: T2, mouse ICAM-1 chimera: the two most membrane-distal Ig domains (1 and 2) of mouse ICAM-1 fused to human Fc (mouse; human, UniProt P13597 28-214, limits assumed); experiment: phage ELISA on immobilized mouse ICAM-1/hFc, relative to non-selected phages
T2 construct: domain: the two most membrane-distal Ig domains -1 and 2-; also called mouse ICAM-1/Fc; mouse ICAM-1/hFc; not shown: human Fc (hFc)
T2 sequence (P13597 28-214 limits assumed, stated change not applied): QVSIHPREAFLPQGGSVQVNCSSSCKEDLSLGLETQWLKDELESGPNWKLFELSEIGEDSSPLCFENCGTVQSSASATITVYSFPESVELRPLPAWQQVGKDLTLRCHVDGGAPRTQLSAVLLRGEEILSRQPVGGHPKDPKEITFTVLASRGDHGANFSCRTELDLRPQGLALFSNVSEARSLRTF
Excerpt: (§1) Example 5 details development of the 7-mer phage-display derived peptides against ICAM-1. These were identified and isolated from a random library by using a chimeric ICAM-1 protein consisting of the two most membrane-distal Ig domains of mouse ICAM-1 fused to human Fc (hFc). One round of negative selection against hFc, followed by three rounds of positive selection against mouse ICAM-1/hFc, rendered six phage clones (A1, B7, B8, B9, B10, and D6), which recognized immobilized mouse ICAM-1 (FIG. 5A).
(§2) (A) ELISA measurement of the binding of 7-mer peptide expressing phage library to immobilized recombinant ICAM-1 (consisting of the two most membrane-distal Ig domains −1 and 2- of mouse ICAM-1 fused to human Fc or hFc), versus their binding to control hFc. (B) Relative specificity and (C) relative affinity of ICAM-1-targeting peptide phages, determined by ELISA from the experiment in (A). (D) Relative binding of phages expressing 7-mer peptides to native ICAM-1 expressed on the surface of HV5 mouse endothelial cells, either control or activated with TNFalpha to mimic a disease phenotype. Binding was determined by microscopy using a fluorescently-labeled antibody to the phage capsid.

[7] = target: T2, mouse ICAM-1 chimera: the two most …; experiment: phage ELISA, binding to mouse ICAM-1/hFc relative to control hFc
Excerpt: as §1, §2

[8] = target: T2, mouse ICAM-1 chimera: the two most …; experiment: γ3 absorbed on 100 nm FITC polystyrene particles; nitrocellulose-immobilized ICAM-1/Fc vs albumin; fluorescence microscopy
Method: (A) The peptide γ3 was absorbed on the surface of 100 nm FITC-labeled polystyrene carriers and the resulting products were incubated for 15 min on nitrocellulose-immobilized albumin vs human or mouse ICAM-1 chimeras containing ICAM-1-Ig domains 1 and 2 fused to human Fc sequence. The membranes were washed and analyzed by fluorescence microscopy to quantify the number of carriers bound per area. Data are expressed relative to non-specific binding of γ3 carriers to albumin controls (dotted line). A comparison to binding of anti-ICAM carriers is provided (dashed line). (B) Binding of FITC-labeled polystyrene carriers coated by absorption with the peptide γ3 and recombinant acid sphingomyelinase (ASM, a therapeutic enzyme) to activated HUVEC (bars) vs ICAM-1-negative 293 cells (dotted line) was quantified by fluorescence microscopy after 1 h incubation at 37° C., in the absence or presence of excess γ3, anti-ICAM, γ3 scramble peptide, or mannose 6 phosphate (M6P). […] (C) HUVEC lysosomes were labeled for 2 h with Texas-red dextran at 37° C. […] Co-localization of FITC carriers with Texas-red dextran-lysosomes was quantified by fluorescence microscopy. […] Co-localization of FITC 2γ3 carriers with Texas red dextran-labeled lysosomes was assessed by microscopy 3 h post-internalization. […]

[9] = target: T2, mouse ICAM-1 chimera: the two most …; experiment: phage ELISA on immobilized mouse ICAM-1/hFc
Excerpt: as §1, §2

Sequence of human ICAM-1 (native, expressed on human cells: HUVEC, Caco-2) (human) (P05362 28-532): as the sequence (P05362 28-532) above

non-specific IgG (control) (antibody)
carrier binding, % of the control value with no competitor [1]: 102 % of control | carriers/cell (carriers/cell) [2]: 1.3

GCKLCAQ [D6 peptide (phage display-derived 7-mer)]
affinity, % of A1 [3]: 92.9 % of A1

B1: B8 peptide (phage display-derived 7-mer) (peptide)
peptide: GSLLSAA
notes: Tested as a phage clone and as a synthetic peptide; The assay field says which; also called B8 clone
binding result [4]: binds

B2: 2γ3 peptide (peptide)
peptide: NNQKIVNIKEKVAQIEA
notes: Derivative of γ3, tested absorbed on polystyrene or PLGA carriers; also called 2γ3 carriers; 2γ3/ASM carriers
binding result [5]: binds

B3: 3γ3 peptide (peptide)
peptide: NNQKLVNIKEKVAQIEA
notes: Derivative of γ3, tested absorbed on polystyrene carriers; also called 3γ3 carriers; 3γ3/ASM carriers
binding result [5]: binds

B4: A1 peptide (phage display-derived 7-mer) (peptide)
peptide: YPASYQR
notes: Tested as a phage clone (5 copies of the peptide on the capsid; coat protein fusion not described) and as a peptide synthesized in vitro; The assay field says which; also called A1 clone; clone A1 phages
affinity, fold over non-selected phages [6]: ~4.7 fold | specificity vs hFc [7]: ~5.1 fold

B5: γ3 peptide (17 amino acid peptide derived from the γ chain of fibrinogen) (peptide)
peptide: NNQKIVNLKEKVAQLEA
notes: Synthetic peptide; Tested mostly absorbed on 100 nm FITC polystyrene carriers, in some assays together with recombinant acid sphingomyelinase (ASM); also called γ3 carriers; γ3/ASM carriers
binding result [8]: binds

B6: B9 peptide (phage display-derived 7-mer) (peptide)
peptide: FSPHSRT
notes: Tested as a phage clone and as a synthetic peptide; The assay field says which; also called B9 clone
binding result [9]: binds | affinity, % of A1 [3]: 72.3 % of A1
